The target of this assay is no. 14 short peptide of the CD2V extracellular region (147-161) (African swine fever virus (China/2018/AnhuiXCGQ)). Put plainly: ELISA. As to conditions: remark: other sources report otherwise. On the technique in general: An ELISA detects its analyte on a solid surface through an enzyme-linked reagent.

The results in this text go back to article PMC9045250.

B1: monoclonal antibody 18A3 against CD2V (antibody, V domains shown)
VH: MVKPGASVKISCKASGYSFTSYYIHWVKQRPGQGLEWIGWIFPGSGNTKYNEKFKGKATLTADTSSSTAYMQLSSLTSEDSAVYFCAQTGRVFAYWGQGTTVTVSSK
VL: MTQSPSSLSASLGERVSLTCRASQEISGYLSWLQQKPDGTIKRLIYAASTLDSGVPKRFSGSRSGSDYSLTISSLESEDFADYYCLQYASYPWTFGGGTKLESNGE
B1 returned an OD450 greater than 1 OD450.

B2: monoclonal antibody 13G11 against CD2V (antibody, V domains shown)
VH: MIMVQSQESGPDLVKPSQSLSLTCTVTGYSITSGYSWHWIRQFPGNKLEWMGYIHYSGVTNYNPSLKSRISITRDTSKNQFFLQLNSVTTEDTATYYCARAPLYYGNYVWFSYWGQGTTVTVSSK
VL: MTCDIELTQSPASLSASVGETVTITCRASGNIHNYLAWYQQKQGKSPQLLVYNAKTLADGVPSRFSGSGSGSQYSLKINSLQPEDFGSYYCQHFWSTPWTFGGGTKLENQTDK
B2 yielded an OD450 greater than 1 OD450.
